Laboratory results reported in patent US20210205211A1, “PERCUTANEOUS ABSORPTION PREPARATION” (KYUSHU UNIVERSITY, NATIONAL UNIVERSITY CORPORATION, priority 2018, published 2021).
Residues, ends and D or L forms follow the SMILES beside them.

Experiments:
[1] = In vitro skin permeability test of OVA S/O-S formulations with various base oils (Example 8); assay type: in vitro ADME, Yucatan micropig; settings: for Average skin permeation amount: Yucatan micropig, pig, 24 h
[2] = In vitro skin permeability test of OVA versus concentration of permeation enhancing substance (Example 3); settings: S/O-S formulation 1 mg/mL OVA in IPM; enhancer solutions of 2, 10, 50 or 100 mg/mL mixed 1:1; 24 hours
[3] = In vitro skin permeability test of hydrophilic polymers in S/O-S formulation containing MGOL-70 (Example 6); settings: for Skin permeation amount of S/O-S preparation: 1 mg/mL hydrophilic polymer S/O-S formulation in IPM containing 25 mg/mL MGOL-70; for Skin permeation amount of S/O-S preparation / Skin permeation amount of PBS solution: YMP skin, 24 hours, 32° C.; for Enhancement effect: S/O-S preparation versus PBS solution; for Skin permeation amount of PBS solution: hydrophilic polymer in PBS solution
[4] = In vitro skin permeability test of OVA with glyceryl monooleate/glyceryl monolinoleate (Example 11); assay type: in vitro ADME; settings: OVA S/O-S in IPM; HR-1 mouse skin, 4 hours
Method: Glyceryl monooleate and glyceryl monolinoleate were dissolved in IPM with the composition shown in the following Table 7 to prepare Formulation 2.
Formulation 1 and Formulation 2 were mixed with a volume ratio of 1:1, and used in the following skin permeability test.
After 4 hours, the receiver phase was recovered, and the amount of the FITC-OVA permeated through the skin was quantified by using a plate reader.

[5] = In vitro skin permeability test of CMAP peptide S/O-S formulations with various oily bases (Example 1); assay type: in vitro ADME, Yucatan micropig
[6] = no method given; cited from earlier work
[7] = Measurement of zeta potential by electrophoretic light scattering; assay type: physicochemical; settings: 1 mg in 1 mL PBS solution, 25° C., Zetasizer Nano ZS
Method: In each 1 mL of a PBS solution was dissolved 1 mg of a part (7 kinds) of the various kinds of hydrophilic polymers shown in the above-mentioned Table 1, and a zeta potential was measured by an electrophoretic light scattering method at 25° C. using Zetasizer Nano ZS (Malvern Panalytical Ltd.).

| Molecule | Skin permeation amount of S/O-S preparation [3] [μg/cm^2] | Enhancement effect [3] [fold] | Skin permeation amount of PBS solution [3] [μg/cm^2] | pI [6] | ζ potential [7] [mV] | also measured |
| --- | --- | --- | --- | --- | --- | --- |
| CCCCCCCCCCCCCC(=O)OC(C)C [Isopropyl myristate, isopropyl myristate] | – | – | – | – | – | skin permeation effect of OVA by oily base [1]: high skin permeation effect; Average skin permeation amount [1]: 44.3 μg/cm^2 |
| CCCCCCCC/C=C\CCCCCCCC(=O)OCC(O)CO (stereo not drawn) [MGOL-70, glyceryl monooleate] | – | – | – | – | – | tendency of the enhancing substance on percutaneous permeation of OVA [2]: tend to enhance it |
| CC(C)C[C@H](NC(=O)[C@H](CCC(=O)O)NC(=O)[C@H](CCC(=O)O)NC(=O)[C@@H](NC(=O)[C@H](Cc1ccc(O)cc1)NC(=O)[C@@H](NC(=O)[C@H](CCCNC(=N)N)NC(=O)[C@H](CC(C)C)NC(=O)[C@@H]1CCCN1C(=O)[C@H](C)NC(=O)[C@H](CO)NC(=O)[C@H](CCC(N)=O)NC(=O)[C@H](C)NC(=O)[C@H](CC(=O)O)NC(=O)[C@H](CC(C)C)NC(=O)[C@@H](N)CC(C)C)C(C)C)C(C)C)C(=O)N[C@@H](CCCCN)C(=O)N1CCC[C@H]1C(=O)O [Peptide (CMAP, from Beta-lactoglobulin)] (H-LLDAQSAPLRVYVEELKP-OH; N-terminus and C-terminus assumed) | 11.1 | 15 | 1.30 | – | – | – |
| CC(C)CCCC(C)CCCC(C)CCCCC(C)CCCC(C)CCCC(C)C (stereo not drawn) [Squalane, squalane] | – | – | – | – | – | skin permeation effect of OVA by oily base [1]: high skin permeation effect; Average skin permeation amount [1]: 40.8 μg/cm^2 |
| CCCCC/C=C\C/C=C\CCCCCCCC(=O)OCC(O)CO (stereo not drawn) [glyceryl monolinoleate] | – | – | – | – | – | skin permeation amount of the drug with increase in the addition ratio [4]: the skin permeation amount of the drug was increased |
| CCCCCCCC/C=C\CCCCCCCC(=O)O [oleic acid] | – | – | – | – | – | enhancing effect of percutaneous permeation (amount of skin permeation of the CMAP peptide) [5]: high enhancing effect of percutaneous permeation |
| Bovin serum albumin: Bovine serum albumin, 66.5 kDa, FITC-label | 32.1 | 8.9 | 3.6 | 4.7 | −16.7 | – |
| Cholera toxin subunit B | 39.4 | 4.0 | 9.8 | 6.6 | −3.29 | – |
| Green fluorescent protein | 35.0 | 8.4 | 4.2 | 6.1 | −9.52 | state of the protein permeated into the skin ([3]; quantified by own fluorescence (GFP) or peroxidase activity (HRP) in skin extract): could be permeated into the skin without being denatured |
| Lysozyme: Lysozyme, 14.3 kDa, FITC-label | 6.0 | 1.5 | 4.0 | 11 | 8.84 | – |
| Ovalubumin: Ovalbumin (OVA), 45 kDa, labeled with FITC; model hydrophilic drug (protein, UniProt P01012 2-386, looked up, FITC, Ovalbumin (OVA), 45 kDa, labeled with FITC; model hydrophilic drug) Ovalbumin: GSIGAASMEFCFDVFKELKVHHANENIFYCPIAIMSALAMVYLGAKDSTRTQINKVVRFDKLPGFGDSIEAQCGTSVNVHSSLRDILNQITKPNDVYSFSLASRLYAEERYPILPEYLQCVKELYRGGLEPINFQTAADQARELINSWVESQTNGIIRNVLQPSSVDSQTAMVLVNAIVFKGLWEKAFKDEDTQAMPFRVTEQESKPVQMMYQIGLFRVASMASEKMKILELPFASGTMSMLVLLPDEVSGLEQLESIINFEKLTEWTSSNVMEERKIKVYLPRMKMEEKYNLTSVLMAMGITDVFSSSANLSGISSAESLKISQAVHAAHAEINEAGREVVGSAEAGVDAASVSEEFRADHPFLFCIKHIATNAVLFFGRCVSP | 12.5 | 30 | 0.41 | 4.9 | −12.80 | – |
